Source: doi:10.1101/706143

Columns and labels:
[1] = biological target: Cas7 (V. cholerae Type I-F variant CRISPR-Cas system) (V. cholerae); test: cryo-EM structure
[2] = biological target: TniQ (transposition protein of the Vibrio cholerae Tn6677 transposon) (V. cholerae); test: cryo-EM structure

Substance	stoichiometry N [1]	stoichiometry N [2]
Cas7 (V. cholerae Type I-F variant CRISPR-Cas system) (natural protein)	6	
TniQ (transposition protein of the Vibrio cholerae Tn6677 transposon) (natural protein)		2
